Where a chain is given by its changes, count along the chain named. Numbers in names are those of the source.
B1: C-reactive protein (human CRP) (ligand)
chain: QTDMSRKAFVFPKESDTSYVSLKAPLTKPLKAFTVCLHFYTELSSTRGYSIFSYATKRQDNEILIFWSKDIGYSFTVGGSEILFEVPEVTVAPVHICTSWESASGIVEFWVDGKPRVRKSLKKGYTVGAEASIILGQEQDSFGGNFEGSQSLVGDIGNVNMWDFVLSPDEINTIYLGGPFSPNVLNWRALKYEVQGEVFTKPQLWP
notes: also called purified human CRP; native CRP
B2: Y175L mutant CRP (tyrosine 175 replaced by leucine) (ligand)
chain: B1 chain with Y175L
notes: It has 206 amino acids; The protein is recombinant; also called Y175L CRP; recombinant Y175L mutant CRP

Legend:
human FcγRI = biological target: T1, human FcγRI (human, UniProt P12314 16-288, limits assumed); experiment: SPR, CRP as analyte on immobilized human FcγR
T1 construct: Immobilized on the SPR chip

human FcγRIII = human FcγRIII (human); experiment: SPR, CRP as analyte on immobilized human FcγR
[1] = biological target: T2, mouse FcγRI on mouse peritoneal macrophages (from FcγRIIb-/- mice) (mouse, UniProt P26151 25-404); experiment: two-color flow cytometry of CRP bound to mouse peritoneal macrophages expressing FcγRI (from FcγRIIb-/- mice); panel title 'Binding to FcγRI'
T2 construct: whole, on cells; also called FcγRI on mouse macrophages
T2 sequence (looked up): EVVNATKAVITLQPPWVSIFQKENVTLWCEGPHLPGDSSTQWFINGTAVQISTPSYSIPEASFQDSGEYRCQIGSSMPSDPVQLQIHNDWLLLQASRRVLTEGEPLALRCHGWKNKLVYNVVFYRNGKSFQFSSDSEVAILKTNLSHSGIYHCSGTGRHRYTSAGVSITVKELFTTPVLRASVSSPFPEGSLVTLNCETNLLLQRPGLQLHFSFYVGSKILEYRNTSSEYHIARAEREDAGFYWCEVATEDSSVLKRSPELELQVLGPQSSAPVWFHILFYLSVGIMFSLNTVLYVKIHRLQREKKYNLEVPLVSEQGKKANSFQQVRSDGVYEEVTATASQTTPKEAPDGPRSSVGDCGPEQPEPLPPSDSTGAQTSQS
Source text: A. Macrophages expressing FcγRI (from FcγRIIb^{-/-} mice). B. Macrophages expressing FcγRIIb (from FcR γ-chain^{-/-} mice).

T1 sequence (P12314 16-288 limits assumed): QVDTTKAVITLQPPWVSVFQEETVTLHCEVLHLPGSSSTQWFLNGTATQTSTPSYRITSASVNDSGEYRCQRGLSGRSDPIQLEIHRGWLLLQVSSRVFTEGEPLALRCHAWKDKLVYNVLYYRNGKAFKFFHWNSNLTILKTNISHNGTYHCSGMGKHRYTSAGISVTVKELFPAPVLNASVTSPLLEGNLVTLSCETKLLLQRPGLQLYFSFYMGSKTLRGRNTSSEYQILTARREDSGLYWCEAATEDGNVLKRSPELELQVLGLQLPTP
Chain of human FcγRIII (human) (O75015 17-200): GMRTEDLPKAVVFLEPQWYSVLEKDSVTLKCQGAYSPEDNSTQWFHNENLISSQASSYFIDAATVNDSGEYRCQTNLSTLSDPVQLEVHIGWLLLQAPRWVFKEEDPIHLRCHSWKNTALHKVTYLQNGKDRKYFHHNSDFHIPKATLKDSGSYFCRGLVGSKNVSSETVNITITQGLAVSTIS

Binder	Kd (human FcγRI) [µM]	Kd (human FcγRIII) [µM]	binding result [1]
B1	3.2	4.1	binds
B2	3.5	–	binds

From US20110152202A1 (STC UNM, published 2011)
